Where a chain is given by its changes, count along the chain named.
B1: synthetic oligo 2 (A:T-substituted dimer) (dsDNA)
DNA 1: AGGAATTCCTAGGAATTCCT
DNA 2: AGGAATTCCTAGGAATTCCT
B2: consensus monomer (dsDNA)
DNA 1: AGGCATGTCT
DNA 2: AGACATGCCT
B3: fragment A subfragment 5 (dsDNA)
DNA 1: AGTGAAAGCAGGTAGATTGCCTTGCCTGGACTTGCCTGGCCTTGCCTTTTCTTTC
DNA 2: GAAAGAAAAGGCAAGGCCAGGCAAGTCCAGGCAAGGCAATCTACCTGCTTTCACT
B4: synthetic oligo 6 (cloned consensus dimer) (dsDNA)
DNA 1: TGCAGGAATTCGATAGGCATGTCTAGGCATGTCTATCAAGCTTATCGAT
DNA 2: ATCGATAAGCTTGATAGACATGCCTAGACATGCCTATCGAATTCCTGCA
B5: synthetic oligo 7 (cloned consensus dimer, inverted) (dsDNA)
DNA 1: B4 DNA 1 with G27A, T32C
DNA 2: B4 DNA 2 with A18G, C23T
B6: synthetic oligo 8 (cloned consensus dimer, inverted) (dsDNA)
DNA 1: B4 DNA 1 with G17A, T22C
DNA 2: B4 DNA 2 with A28G, C33T
B7: synthetic oligo 5 (direct half-site repeats) (dsDNA)
DNA 1: AGGCAAGGCAAGGCAAGGCA
DNA 2: TGCCTTGCCTTGCCTTGCCT
B8: synthetic oligo 9 (cloned monomer) (dsDNA)
DNA 1: TGCAGGAATTCGATAGGCATGTCTATCAAGCTTATCGAT
DNA 2: ATCGATAAGCTTGATAGACATGCCTATCGAATTCCTGCA
B9: synthetic oligo 1 (A:T-substituted monomer) (dsDNA)
DNA 1: AGGAATTCCT
DNA 2: AGGAATTCCT

Legend:
p53 wild-type [1] = biological target: T1, p53 wild-type (Homo sapiens, UniProt P04637 P04637:1-393); assay: pulldown; details: chain copies: 4
T1 sequence (P04637 whole entry, one chain of several): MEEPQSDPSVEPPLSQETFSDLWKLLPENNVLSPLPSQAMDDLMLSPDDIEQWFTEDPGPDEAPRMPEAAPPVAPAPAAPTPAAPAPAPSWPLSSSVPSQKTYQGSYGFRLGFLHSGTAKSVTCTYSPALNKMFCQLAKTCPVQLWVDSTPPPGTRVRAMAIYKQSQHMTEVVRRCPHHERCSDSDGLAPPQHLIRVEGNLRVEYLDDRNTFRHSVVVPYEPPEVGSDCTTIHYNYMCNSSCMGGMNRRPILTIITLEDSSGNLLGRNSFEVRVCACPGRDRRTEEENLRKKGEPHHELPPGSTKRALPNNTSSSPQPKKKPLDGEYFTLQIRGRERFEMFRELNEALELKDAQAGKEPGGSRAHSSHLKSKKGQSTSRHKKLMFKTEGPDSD

p53 wild-type [2] = biological target: T1, p53 wild-type; assay: pulldown; monomer alone, not shown; details: chain copies: 4
p53 wild-type [3] = biological target: T1, p53 wild-type; assay: pulldown; details: chain copies: 4; label: 32P
Description: FIG. 11A. […] For each sample, the control lane (C) contained 2% of the total DNA used in the binding reaction, and was composed of two fragments: 2.9 kb vector DNA fragment, and a fragment of 40 to 80 bp containing no insert (lane 9; XhoI plus Pst1 digest of pBluescript II SK+), the 10 bp consensus monomer sequence 5′-[…]-3′ (lane 5), or multimers of this sequence arranged as indicated (lanes 1 to 4, 6, to 8). Bound DNA from the IP is shown in the B lanes.
To determine if the 10 bp consensus monomer could bind p53, a synthetic oligonucleotide (5′-[…]-3′) containing the consensus sequence was studied. Oligonucleotide duplexes were tested either directly or after cloning into plasmid vectors. […] Two variants of the consensus motif were also tested for binding. In the first, the two critical G:C bp's at position 4 and 6 of the monomer were substituted with A:T bp's (FIG. 10, synthetic oligonucleotides 1,2).

Binder | binding result (p53 wild-type [1]) | binding result (p53 wild-type [3]) | also measured
B1 | no binding | – | –
B2 | – | – | binding result (p53 wild-type [2]): no binding
B3 | – | – | binding result (p53 wild-type [1]; label: 32P): binds
B4 | – | binds | –
B5 | – | binds | –
B6 | – | binds | –
B7 | no binding | – | –
B8 | – | no binding | –
B9 | no binding | – | –
